Measured values taken from PMC5980749.

Target: Wild-type E. coli 70S ribosomes, purified from strain MRE600 (E. coli (endogenous in MRE600)) (UniProt P0A7R5)
Test: co-sedimentation

Escherichia coli transcription factor NusG, His-tagged, wild type (from UniProt P0AFG0 1-181) (natural protein)
percent of total NusG recovered in the ribosomal pellet: 19%
stoichiometry N: 1 NusG per 70S
